{"source": "patent US10729768B2", "about": "“Combination of anti-CD20 antibody and PI3 kinase selective inhibitor” (TG Therapeutics, Inc., priority 2012, dated 2020)", "molecules": {"B1": {"name": "UBX: monoclonal antibody that targets a specific and unique epitope on CD20, bioengineered for enhanced clinical activity and potency (antibody, V domains shown)", "VH": "QAYLQQSGAELVRPGASVKMSCKASGYTFTSYNMHWVKQTPRQGLEWIGGIYPGNGDTSYNQKFKGKATLTVGKSSSTAYMQLSSLTSEDSAVYFCARYDYNYAMDYWGQGTSVTVSS", "VL": "QIVLSQSPAILSASPGEKVTMTCRASSSVSYMHWYQQKPGSSPKPWIYATSNLASGVPARFSGSGSGTSYSFTISRVEAEDAATYYCQQWTFNPPTFGGGTRLEIK", "modifications": "antibody fragment"}}, "key": {"CD19-positive cells": {"test_system": "CD19-positive cells", "assay": "B cell depletion from human whole blood (HWB), flow cytometry, CD19", "type": "cell-based", "settings": "24 hrs", "procedure": "A flow cytometry assay was used to compare the ability of S-isomer of compound of formula A, Ublituximab (Ubx), and combinations thereof to deplete B cells from human whole blood (HWB). In this assay, 50 μl of HWB sample was treated with either S-isomer of a compound of formula A (1000 nM), UBX (100 μg/ml to 0.1 μg/ml), or UBX in combination with S-isomer of a compound of formula A at 1000 nM and incubated for 24 hrs at 37° C. and 5% CO2. 20 μl of treated sample was taken in a 1.5 ml centrifuge tube and labeled with CD45 FITC and CD19 PE or CD20 FITC antibody and incubated in the dark for 1 hour at RT. 1 ml of red blood cell (RBC) lysing solution was added, and tubes were centrifuged at 3000 rpm for 10 minutes. […] The tubes were vortexed, and 5000 events were acquired on a Guava® easyCyte™ flow cytometer and analyzed with Incyte Software.\nGated population of CD45-positive cells were further analyzed for CD19. The number of cells that were positive for CD45 and CD19 was calculated, and the data was expressed as the percentage of CD19 positive cells in the population. CD20-positive populations were gated with fluorescence positive minus unlabeled cells, and the data was expressed as the percentage of CD20-positive cells in the population. The loss of CD19/CD20 population from control was calculated and expressed as % depletion with respect to control."}, "CD19+ B-cell": {"test_system": "CD19+ B-cell", "assay": "LPS-induced proliferation in HWB, flow cytometry, CD19", "type": "cell-based, human", "settings": "72 hrs", "procedure": "Flow cytometry was used to study the effect of S-isomer of a compound of formula A, Ubx, and combinations thereof on LPS-induced proliferation of CD19 and CD20 cells in HWB. In these experiments, 250 μl of diluted (1:3.5 with RPMI-HG Media) HWB sample was treated with either S-isomer of a compound of formula A (10 μM to 0.1 μM), UBX (100 μg/ml to 0.1 μg/ml) or UBX with S-isomer of a compound of formula A at 1000 nM for 15 minutes followed by 20 μg/ml LPS induction and incubated for 72 hrs at 37° C. and 5% CO2. 20 μl of treated sample was taken in a 1.5 ml centrifuge tube and labeled with CD20 FITC and CD19 PE antibody and incubated in the dark for 1 hour at RT. 1 ml of RBC lysing solution was added and tubes were centrifuged at 3000 rpm for 10 minutes. Supernatant was aspirated, and 250 μl of PBS was added to the pellet. Tubes were vortexed, and 5000 events were acquired on a Guava® easyCyte™ flow cytometer and analyzed with Incyte Software.\nGated population of lymphocytes positive cells were further analyzed for CD19 and CD20. Cells positive for CD19 and/or CD20 were calculated, and data were expressed as the percentage positive cells in the population. The loss of positive population from control with LPS induction was calculated and expressed as % inhibition with respect to control."}, "[1]": {"test_system": "Daudi, RPMI-8226, Raji, and U266B1 cells", "assay": "in situ caspase-3 kit, apoptosis (Example 3), cell lines tested", "type": "cell-based", "settings": "24 hrs", "procedure": "In order to determine the effect of S-isomer of a compound of formula A, UBX, and combinations thereof on apoptosis in cancer cells, an in situ caspase-3 kit (Millipore) was used. Cells were plated in a 6 well plate at a concentration of 0.5×10^6 cells/ml, treated with either S-isomer of a compound of formula A (1000 nM), UBX (100 μg/ml to 0.1 μg/ml), or UBX with S-isomer of a compound of formula A at 1000 nM, and incubated for 24 hrs at 37° C. and 5% CO2. The cells were then transferred to microfuge tubes to receive 10 μl of freshly prepared FLICA™ reagent and incubated for 1 hour at 37° C. and 5% CO2 away from light. After extensive washes with wash buffer, test samples were adjusted to equalize the number of cells in PBS. 100 μl of each cell suspension was transferred to black 96-well plates in duplicates, and the fluorescence was read at an excitation wavelength of 490 nm and an emission wavelength of 520 nm in a plate reader. The fluorescence intensity for a DMSO control was subtracted from that of test compounds. Data was expressed as a percent of the maximum response (100%) and plotted accordingly."}, "LY1 Cells": {"test_system": "LY1 Cells", "assay": "in situ caspase-3 kit, caspase 3 activity and combination index (Example 5)", "type": "cell-based", "settings": "for Caspase 3 Activity: LY1 cells, 24 hrs", "procedure": "(§1) In order to determine the effect of S-isomer of a compound of formula A, UBX, and combinations thereof on apoptosis in cancer cells, an in situ caspase-3 kit (Millipore) was used. CELLS were plated in a 6 well plate at a concentration of 0.5×10^6 cells/ml, treated with either S-isomer of a compound of formula A (200-5000 nM), UBX (10,000 ng/ml to 10 ng/ml), or UBX with S-isomer of a compound of formula A (as indicated), and incubated for 24 hrs at 37° C. and 5% CO2. The cells were then transferred to microfuge tubes to receive 10 μl of freshly prepared FLICA™ reagent and incubated for 1 hour at 37° C. and 5% CO2 away from light. After extensive washes with wash buffer, test samples were adjusted to equalize the number of cells in PBS. 100 μl of each cell suspension was transferred to black 96-well plates in duplicates, and the fluorescence was read at an excitation wavelength of 490 nm and an emission wavelength of 520 nm in a plate reader. The fluorescence intensity for a DMSO control was subtracted from that of test compounds. Data was expressed as caspase-3 activity a combination index (C.I.) calculated."}, "Raji Cells": {"test_system": "Raji Cells", "assay": "in situ caspase-3 kit, caspase 3 activity and combination index (Example 5)", "type": "cell-based", "settings": "24 hrs; for Caspase 3 Activity: Raji cells", "procedure": "as §1"}, "B-cells": {"test_system": "B-cells", "assay": "cytotoxicity to B-cells", "type": "cell-based", "settings": "concentrations up to 10 μM"}}, "data": [{"molecule": "CC(C)Oc1ccc(-c2nn([C@@H](C)c3oc4ccc(F)cc4c(=O)c3-c3cccc(F)c3)c3ncnc(N)c23)cc1F", "note": "[S-isomer, (S)-2-(1-(4-amino-3-(3-fluoro-4-isopropoxyphenyl)-1H-pyrazolo[3,4-d]pyrimidin-1-yl)ethyl)-6-fluoro-3-(3-fluorophenyl)-4H-chromen-4-one]", "values": [{"measurement": "reduction in CD19-positive HWB B-cells", "setting": "CD19-positive cells; 1 μM", "result": "not observed"}, {"measurement": "inhibition at 1 µM", "setting": "CD19+ B-cell; Homo sapiens, B-cell, 1 μM", "result": "~60", "unit": "%"}, {"measurement": "Caspase-3 activity increase", "setting": "[1]; 1 μM, cell lines", "result": "40-75%"}, {"measurement": "Caspase 3 Activity", "setting": "LY1 Cells; S-isomer 200 nM", "result": 0.06}, {"measurement": "Caspase 3 Activity", "setting": "LY1 Cells; S-isomer 1000 nM", "result": 0.17}, {"measurement": "Caspase 3 Activity", "setting": "LY1 Cells; S-isomer 5000 nM", "result": 0.61}, {"measurement": "Caspase 3 Activity", "setting": "Raji Cells; S-isomer 200 nM", "result": 0.36}, {"measurement": "Caspase 3 Activity", "setting": "Raji Cells; S-isomer 1000 nM", "result": 0.56}, {"measurement": "Caspase 3 Activity", "setting": "Raji Cells; S-isomer 5000 nM", "result": 0.80}, {"measurement": "cytotoxic to B-cells", "setting": "B-cells", "result": "not cytotoxic"}]}, {"molecule": "B1", "values": [{"measurement": "depletion of B-cells", "setting": "CD19-positive cells; human whole blood, doses from 1 to 100,000 ng/ml", "result": "20-30%"}, {"measurement": "effect on CD19+ cells (LPS-induced proliferation)", "setting": "CD19+ B-cell", "result": "minimal effect"}, {"measurement": "ability to induce Caspase-3 activity", "setting": "[1]; cell lines tested", "result": "limited ability"}, {"measurement": "caspase-3 activity", "setting": "LY1 Cells; LY1, 24 hrs", "result": "induced"}, {"measurement": "Caspase 3 Activity", "setting": "LY1 Cells; UBX 10 ng/ml", "result": 0.23}, {"measurement": "Caspase 3 Activity", "setting": "LY1 Cells; UBX 100 ng/ml", "result": 0.32}, {"measurement": "Caspase 3 Activity", "setting": "LY1 Cells; UBX 1000 ng/ml", "result": 0.53}, {"measurement": "Caspase 3 Activity", "setting": "LY1 Cells; UBX 10,000 ng/ml", "result": 0.59}, {"measurement": "Caspase 3 Activity", "setting": "Raji Cells; UBX 10 ng/ml", "result": 0.18}, {"measurement": "Caspase 3 Activity", "setting": "Raji Cells; UBX 100 ng/ml", "result": 0.31}, {"measurement": "Caspase 3 Activity", "setting": "Raji Cells; UBX 1000 ng/ml", "result": 0.51}, {"measurement": "Caspase 3 Activity", "setting": "Raji Cells; UBX 10,000 ng/ml", "result": 0.60}, {"measurement": "caspase-3 activity", "setting": "Raji Cells; Raji", "result": "induced"}]}]}
